Here are results for four substances from patent publication US20240392004A1.

Holding throughout (experiment): cell-based or functional assay
Test [1] addresses IL-23 receptor complex (IL-12Rβ1 and IL-23R) (UniProt P42701).
In test [2] the target is IL-10 receptor (hIL-10Rα and hIL-10Rβ) (human) (UniProt Q13651).
Test [3] addresses T1, IFN-γ receptor (IFNGR1 and IFNGR2) (UniProt P15260).
T1 sequence (looked up) 1: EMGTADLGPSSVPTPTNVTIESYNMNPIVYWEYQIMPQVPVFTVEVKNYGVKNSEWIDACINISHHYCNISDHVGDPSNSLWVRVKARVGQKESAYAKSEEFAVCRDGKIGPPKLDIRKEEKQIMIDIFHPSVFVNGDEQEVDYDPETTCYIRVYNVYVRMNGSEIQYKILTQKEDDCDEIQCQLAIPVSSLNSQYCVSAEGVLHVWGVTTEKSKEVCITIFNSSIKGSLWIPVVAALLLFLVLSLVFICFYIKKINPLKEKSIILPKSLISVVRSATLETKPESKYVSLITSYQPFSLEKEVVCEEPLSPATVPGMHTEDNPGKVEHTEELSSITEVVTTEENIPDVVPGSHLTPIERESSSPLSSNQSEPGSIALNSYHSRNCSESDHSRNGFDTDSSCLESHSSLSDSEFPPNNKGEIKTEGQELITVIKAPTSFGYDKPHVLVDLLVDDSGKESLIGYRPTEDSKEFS
T1 sequence (looked up) 2: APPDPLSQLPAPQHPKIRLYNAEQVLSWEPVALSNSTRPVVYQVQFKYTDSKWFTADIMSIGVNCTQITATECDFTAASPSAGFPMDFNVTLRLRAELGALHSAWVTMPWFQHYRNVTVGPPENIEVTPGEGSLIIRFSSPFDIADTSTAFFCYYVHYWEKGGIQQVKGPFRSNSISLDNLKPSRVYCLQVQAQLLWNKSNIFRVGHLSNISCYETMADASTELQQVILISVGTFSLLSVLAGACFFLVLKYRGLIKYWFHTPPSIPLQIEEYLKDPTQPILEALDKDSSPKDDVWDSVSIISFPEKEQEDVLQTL

Test [4] deals with human IL-12 receptor complex (IL-12Rβ1 and IL-12Rβ2) (human) (UniProt P42701).
Chain of human IL-12 receptor complex (IL-12Rβ1 and IL-12Rβ2) (human) (Q99665 24-862, chain 2 of 2, other chains not shown): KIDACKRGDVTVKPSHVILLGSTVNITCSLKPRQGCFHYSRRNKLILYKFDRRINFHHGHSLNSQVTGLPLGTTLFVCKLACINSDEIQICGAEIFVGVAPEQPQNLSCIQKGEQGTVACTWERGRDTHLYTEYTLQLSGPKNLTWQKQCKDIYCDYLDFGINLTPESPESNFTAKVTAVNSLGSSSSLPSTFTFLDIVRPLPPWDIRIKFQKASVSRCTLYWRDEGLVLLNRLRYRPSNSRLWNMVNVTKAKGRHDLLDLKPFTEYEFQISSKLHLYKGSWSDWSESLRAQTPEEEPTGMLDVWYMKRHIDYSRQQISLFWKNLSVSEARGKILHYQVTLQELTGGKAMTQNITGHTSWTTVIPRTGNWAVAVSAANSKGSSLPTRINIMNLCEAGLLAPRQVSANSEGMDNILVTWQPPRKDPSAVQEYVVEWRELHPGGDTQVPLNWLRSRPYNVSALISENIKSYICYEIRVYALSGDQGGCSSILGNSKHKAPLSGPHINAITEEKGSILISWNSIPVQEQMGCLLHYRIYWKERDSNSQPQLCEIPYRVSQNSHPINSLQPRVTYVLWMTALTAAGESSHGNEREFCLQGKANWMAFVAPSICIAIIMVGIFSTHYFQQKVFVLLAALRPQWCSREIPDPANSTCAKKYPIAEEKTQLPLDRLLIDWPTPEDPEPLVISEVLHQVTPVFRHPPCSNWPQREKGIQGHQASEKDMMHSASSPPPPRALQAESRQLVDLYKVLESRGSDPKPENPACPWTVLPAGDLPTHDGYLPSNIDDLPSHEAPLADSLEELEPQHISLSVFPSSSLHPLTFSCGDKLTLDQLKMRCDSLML

Chain of recombinant human IFN-γ (free state) (P01579 24-166 limits assumed): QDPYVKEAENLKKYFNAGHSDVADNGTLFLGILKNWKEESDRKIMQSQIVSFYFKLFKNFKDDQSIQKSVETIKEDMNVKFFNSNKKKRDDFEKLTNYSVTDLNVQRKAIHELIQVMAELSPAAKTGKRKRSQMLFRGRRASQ
Chain of recombinant human IL-12 (P29459 23-219 limits assumed): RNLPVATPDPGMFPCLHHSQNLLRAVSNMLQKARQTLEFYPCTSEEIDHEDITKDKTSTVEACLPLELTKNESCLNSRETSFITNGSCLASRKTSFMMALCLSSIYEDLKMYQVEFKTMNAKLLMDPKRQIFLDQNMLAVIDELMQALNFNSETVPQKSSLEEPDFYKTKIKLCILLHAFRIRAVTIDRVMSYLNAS
Chain of recombinant human IL-12 (P29460 23-328 limits assumed): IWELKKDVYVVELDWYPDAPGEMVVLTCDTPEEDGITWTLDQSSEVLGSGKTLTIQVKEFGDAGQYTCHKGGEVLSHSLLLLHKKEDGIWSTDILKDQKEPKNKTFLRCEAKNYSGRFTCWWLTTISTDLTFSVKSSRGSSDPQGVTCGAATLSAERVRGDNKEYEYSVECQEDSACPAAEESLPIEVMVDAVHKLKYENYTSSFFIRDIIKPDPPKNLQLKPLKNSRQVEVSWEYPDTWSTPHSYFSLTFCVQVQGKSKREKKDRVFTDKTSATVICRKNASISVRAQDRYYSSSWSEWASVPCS
Chain of IL-10 receptor (hIL-10Rα and hIL-10Rβ) (human) (Q13651 22-578, chain 1 of 2): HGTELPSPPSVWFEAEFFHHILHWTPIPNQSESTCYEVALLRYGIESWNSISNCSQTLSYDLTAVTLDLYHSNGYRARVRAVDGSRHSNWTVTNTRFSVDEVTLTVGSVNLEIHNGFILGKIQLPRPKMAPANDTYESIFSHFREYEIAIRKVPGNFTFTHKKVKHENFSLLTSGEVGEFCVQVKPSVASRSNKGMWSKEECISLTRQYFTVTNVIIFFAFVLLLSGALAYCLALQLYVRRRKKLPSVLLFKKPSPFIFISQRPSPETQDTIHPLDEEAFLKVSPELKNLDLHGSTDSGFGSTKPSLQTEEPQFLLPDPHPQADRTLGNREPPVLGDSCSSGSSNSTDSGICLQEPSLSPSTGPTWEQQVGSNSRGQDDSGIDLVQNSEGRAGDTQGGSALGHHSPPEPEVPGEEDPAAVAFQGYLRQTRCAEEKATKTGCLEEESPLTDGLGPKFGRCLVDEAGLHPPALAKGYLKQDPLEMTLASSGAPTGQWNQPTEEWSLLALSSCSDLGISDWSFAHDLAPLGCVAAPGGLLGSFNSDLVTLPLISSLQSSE
Chain of IL-10 receptor (hIL-10Rα and hIL-10Rβ) (human) (Q08334 20-325, chain 2 of 2, further chain): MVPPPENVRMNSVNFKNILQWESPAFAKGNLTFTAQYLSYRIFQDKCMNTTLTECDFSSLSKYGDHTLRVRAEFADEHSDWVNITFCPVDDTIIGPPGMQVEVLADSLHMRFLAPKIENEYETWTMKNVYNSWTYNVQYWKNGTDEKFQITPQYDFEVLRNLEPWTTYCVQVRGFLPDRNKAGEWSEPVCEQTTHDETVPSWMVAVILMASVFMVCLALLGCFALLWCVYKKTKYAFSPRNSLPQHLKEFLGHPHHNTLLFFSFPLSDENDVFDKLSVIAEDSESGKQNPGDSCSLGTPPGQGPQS
Chain of recombinant human IL-23 (free state) (Q9NPF7 20-189 limits assumed): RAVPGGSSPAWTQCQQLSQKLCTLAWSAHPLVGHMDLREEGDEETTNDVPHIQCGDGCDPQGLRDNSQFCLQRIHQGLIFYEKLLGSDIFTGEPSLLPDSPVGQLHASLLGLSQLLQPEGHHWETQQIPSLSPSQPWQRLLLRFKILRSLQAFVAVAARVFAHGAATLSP
Chain of recombinant human IL-23 (free state) (P29460 23-328 limits assumed): as the sequence (P29460 23-328 limits assumed) above
Chain of IL-23 receptor complex (IL-12Rβ1 and IL-23R) (Q5VWK5 24-629 limits assumed, chain 2 of 2, other chains not shown): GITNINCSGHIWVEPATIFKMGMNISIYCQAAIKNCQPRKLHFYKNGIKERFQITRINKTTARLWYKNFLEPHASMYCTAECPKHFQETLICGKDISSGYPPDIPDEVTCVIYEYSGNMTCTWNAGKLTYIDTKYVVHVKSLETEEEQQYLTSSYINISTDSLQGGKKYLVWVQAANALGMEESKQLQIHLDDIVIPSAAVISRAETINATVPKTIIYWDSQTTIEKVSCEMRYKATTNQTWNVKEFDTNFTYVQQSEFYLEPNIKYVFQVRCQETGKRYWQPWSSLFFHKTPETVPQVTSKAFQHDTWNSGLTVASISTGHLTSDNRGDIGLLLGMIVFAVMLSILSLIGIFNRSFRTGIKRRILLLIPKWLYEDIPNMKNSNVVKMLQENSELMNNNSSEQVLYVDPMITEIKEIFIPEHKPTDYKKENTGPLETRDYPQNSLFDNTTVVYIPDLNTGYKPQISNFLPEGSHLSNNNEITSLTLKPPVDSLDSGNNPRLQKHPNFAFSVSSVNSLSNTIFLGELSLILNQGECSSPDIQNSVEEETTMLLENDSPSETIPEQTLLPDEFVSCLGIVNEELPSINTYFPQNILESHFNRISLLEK

In test [1], “recombinant human IL-23 (free state) (from UniProt Q9NPF7 20-189; P29460 23-328) (ligand)” came in with an IL-23 signal transduction, HEK-IL-23 cells, % of rIL-23 of 100% and an IL-23 signal transduction, HEK-PD-1-IL-23 cells, % of rIL-23 of 100%.
In test [2], “recombinant human IL-10 (free state) (from UniProt P22301 19-178) (ligand)” returned an IL-10 signal transduction, HEK-IL-10 cells, % of rIL-10 of 100% and an IL-10 signal transduction, HEK-PD-1-IL-10 cells, % of rIL-10 of 100%.
In the case of “recombinant human IFN-γ (free state) (from UniProt P01579 24-166) (ligand)”, in test [3], the IFN-γ signal transduction, HEK-IFN-γ amounted to 100%; the IFN-γ signal transduction, HEK-IFN-γ cells, % of rIFN-γ stood at 100%; the IFN-γ signal transduction, HEK-IFN-γ-PD-1 came out at 100%; the IFN-γ signal transduction, HEK-IFN-γ-TIGIT turned out to be 100%. Also, the IFN-γ signal transduction, HEK-PD-1-IFN-γ cells, % of rIFN-γ in test [3] worked out at 100%.
In test [4], “recombinant human IL-12 (from UniProt P29459 23-219; P29460 23-328) (ligand)” returned an IFN-γ release, activated PBMC of 2300 ng/mL; an IL-12 signal transduction, HEK IL-12 of 100%; an IL-12 signal transduction, HEK-IL-12 of 100%; an IL-12 signal transduction, HEK-IL-12-PD-1 of 100%. In test [4], the IL-12 signal transduction, HEK-IL-12-PD-1 (high) came to 100%; the IL-12 signal transduction, HEK-IL-12-PD-1 (low) was 100%; the IL-12 signal transduction, HEK-IL-12-TIGIT turned out to be 100%; the IL-12 signal transduction, HEK-IL-12 cells, % of rIL-12 was found to be 100%. In test [4], this substance showed an IL-12 signal transduction, HEK-PD-1-IL-12 of 100% and an IL-12 signal transduction, HEK-PD-1-IL-12 cells, % of rIL-12 of 100%.
